The record followed here is patent US11180770B2, “HPPD variants and methods of use” (BASF Agricultural Solutions Seed US LLC, priority 2017, dated 2021).

One data set concerns HPPD polypeptides. Nature of the data set: coupled HPPD activity assay: turnover and residual turnover in crude extracts. The data set is classed as biochemical, Pseudomonas fluorescens. The conditions noted are these: for Turnover: absence of Cmpd. 1, kinetic changes in absorbance (OD) at 320 nm, 30 min; for Turnover / Residual turnover: high substrate concentration; for Residual turnover: presence of 100 μM Cmpd. 1, changes in absorbance (OD) at 320 nm; for turnover / residual turnover in the presence of Cmpd. 1 compared with a reference HPPD polypeptide, in words: comparison with the reference or parent polypeptide; for Residual turnover [%]: 100 μM Cmpd. 1, signal change with inhibitor divided by signal change without inhibitor.

A further data set concerns T0 soybean plants. The experiment in a line: greenhouse spray test, leaf area damage score. The conditions noted are these: for leaf area damage score, 25th percentile / leaf area damage score, 75th percentile / leaf area damage score, 90th percentile / leaf area damage score, Median: transgenic soybean T0 events, five days after Cmpd. 1 at 300 g AI/ha; for leaf area damage score, 25th percentile: scale 0 (no damage) to 100 (complete bleaching). It counts as in vivo. The text has this: Tolerant green shoots were transferred to rooting media or grafted. Rooted plantlets were transferred to the greenhouse after an acclimation period. Plants containing the transgene were then sprayed with HPPD inhibitor herbicides, as for example with mesotrione at a rate of 300-600 g AI/ha, or with Cmpd. 1 (2-chloro-3-(methylsulfanyl)-N-(1-methyl-1H-tetrazol-5-yl)-4-(trifluoromethyl)-benzamide) at a rate of 150 g-300 g AI/ha supplemented with ammonium sulfate and methyl ester rapeseed oil. Five to ten days after the application, the symptoms due to the application of the herbicide were evaluated and compared to the symptoms observed on wild-type plants under the same conditions. For example, T0 soybean plants having a “plant expression cassette”, which includes an HPPD inhibitor tolerant HPPD polypeptide of the present invention, were tested towards the tolerance of Cmpd. 1. Prior greenhouse trials with the transgenic plants, soybean transformants were routinely analyzed for the expression and presence of the transgenes using the ELISA protein detection method (see detailed description under item D and H). Only plants recovering in the selection media and having a detectable HPPD transgene protein expression were used for the herbicide tolerance analysis. A DeVries Tracker Sprayer was calibrated prior to each spraying. The chemical formulation used for Cmpd. 1 was supplemented with ammonium sulfate and methylated rape seed oil. Spray tests were conducted with a concentration, which equals to 300 grams AI per hectare (300 g AI/ha).
In greenhouse trials, independent T0 soybean events containing an exemplary mutant HPPD polypeptide were sprayed with the HPPD inhibitor herbicide Cmpd. 1 (2-chloro-3-(methylsulfanyl)-N-(1-methyl-1H-tetrazol-5-yl)-4-(trifluoromethyl)benzamide) at the rate of 300 grams AI/ha, supplemented with ammonium sulfate and methyl ester rapeseed oil. Five days after the application, the leaf damaged area due to the HPPD inhibitor herbicide is scored in a scale from 0 (no damage) to 100 (complete bleaching). Under those conditions, the wild-type plants were completely bleached and their damage scores were in the 95-100 range.
Table 5 presents the distribution of the HPPD inhibitor herbicide damage score data as percentile for exemplary mutant HPPD inhibitor herbicide tolerant polypeptides (SEQ ID NOs). The percentiles normalize ranks of the damage score from an individual plant in a population. […] The median is the 50th percentile. Half the values had higher damage scores; half had lower damage scores. The value of the 75th and 90th percentile is the damage score where 75% and 90% of the soybean events had lower damage scores, respectively. The difference between the 75th and 25th percentile is called the interquartile range and a marker to quantify scattering in the population. All constructs had only one single cassette insertion in the soybean genome.

Positions count from the first letter of the chain named.

`CSc1c(C(F)(F)F)ccc(C(=O)Nc2nnnn2C)c1Cl` [Cmpd. 1, 2-chloro-3-(methylsulfanyl)-N-(1-methyl-1H-tetrazol-5-yl)-4-(trifluoromethyl)benzamide, reference compound]: in the data set on HPPD polypeptides, the Turnover stood at 0.203 and the Residual turnover is 0.021. The “leaf damage score of wild-type plants” value in the data set with T0 soybean plants (wild-type soybean plants, 300 grams AI/ha, five days after application, scale 0-100) is recorded as 95-100.

B1: SEQ ID NO: 47: mutant PfHPPD: 268A 270N 335P 336H 337S 340V 344Q 345M (protein)
chain: MADLYENPMGLMGFEFIEFASPTPGTLEPIFEIMGFTKVATHRSKNVHLYRQGEINLILNNEPNSIASYFAAEHGPSVCGMAFRVKDSQKAYNRALELGAQPIHIDTGPMELNLPAIKGIGGAPLYLIDRFGEGSSIYDIDFVYLEGVERNPVGAGLKVIDHLTHNVYRGRMVYWANFYEKLFNFREARYFDIKGEYTGLTSKAMSAPDGMIRIPLNEESSKGAGQIEEFLMQFNGEGIQHVAFLTDDLVKTWDALKKIGMRFMTAPADNYYEMLEGRLPDHGEPVDQLQARGILLDGSSVEGDKRLLLQIFSETLMGPVFFEFIQRKGDDGFGPHSFKVLFEQMERDQVRRGVLTAD
modifications: mutant HPPD polypeptide
notes: mutant PfHPPD: 268A 270N 335P 336H 337S 340V 344Q 345M
Take B1: in the data set on HPPD polypeptides, the “turnover / residual turnover in the presence of Cmpd. 1 compared with a reference HPPD polypeptide, in words” value was “significant increase in the residual turnover”. In addition, the “leaf area damage score, 25th percentile” value in the data set on T0 soybean plants came to 5.0. In the data set with T0 soybean plants (scale 0-100), the “leaf area damage score, 75th percentile” value is on record as 15.0; the “leaf area damage score, 90th percentile” value was 51.0; the “leaf area damage score, Median” value amounted to 15.0.

B2: 41 (protein)
chain: B1 chain with A268R, N270E, Q344S, M345V
modifications: mutant HPPD polypeptide
Consider B2, for which, in the data set on HPPD polypeptides, the “Residual turnover [%]” value is 38%, the Turnover is recorded as 0.280 and the Residual turnover amounted to 0.105.

B3: 38 (protein)
chain: B1 chain with N270E, Q344S, M345V
modifications: mutant HPPD polypeptide
For the molecule B3, in the data set on HPPD polypeptides, the “Residual turnover [%]” value was 45%, the Turnover turned out to be 0.286 and the Residual turnover worked out at 0.129.

B4: 45 (protein)
chain: B1 chain with M345V
modifications: mutant HPPD polypeptide
Turning to B4, in the data set with HPPD polypeptides, the “Residual turnover [%]” value is 57%, the Turnover is on record as 0.214 and the Residual turnover came out at 0.121.

B5: 37 (protein)
chain: B1 chain with A268S, Q344S, M345V
modifications: mutant HPPD polypeptide
Turning to B5, in the data set on HPPD polypeptides, the “Residual turnover [%]” value is 50%, the Turnover came out at 0.096 and the Residual turnover came out at 0.048.

B6: 44 (protein)
chain: B1 chain with A268G, N270E, M345V
modifications: mutant HPPD polypeptide
Turning to B6, in the data set with HPPD polypeptides, the Turnover turned out to be 0.036.

B7: 42 (protein)
chain: B1 chain with A268S, N270E, Q344S, M345V
modifications: mutant HPPD polypeptide
Take B7: in the data set on HPPD polypeptides, the “Residual turnover [%]” value amounted to 40%, the Turnover is reported as 0.278 and the Residual turnover is on record as 0.111.

B8: 40 (protein)
chain: B1 chain with A268G, N270E, H336D, Q344S, M345V
modifications: mutant HPPD polypeptide
In the case of B8, in the data set with HPPD polypeptides, the “Residual turnover [%]” value is 54%, the Turnover was 0.134 and the Residual turnover is reported as 0.073.

B9: SEQ ID NO: 69: mutant PfHPPD: 268A 270S 315R 335P 336H 337S 340V 344Q 345M (protein)
chain: B1 chain with N270S, T315R
modifications: mutant HPPD polypeptide
notes: mutant PfHPPD: 268A 270S 315R 335P 336H 337S 340V 344Q 345M
In the case of B9, the “turnover / residual turnover in the presence of Cmpd. 1 compared with a reference HPPD polypeptide, in words” value with HPPD polypeptides is “increase significantly the turnover and the residual turnover”. Further, in the data set with T0 soybean plants, the “leaf area damage score, 25th percentile” value was found to be 20.0. In the data set with T0 soybean plants (scale 0-100), the “leaf area damage score, 75th percentile” value is given as 25.0; the “leaf area damage score, 90th percentile” value was found to be 42.0; the “leaf area damage score, Median” value was found to be 20.0.

B10: SEQ ID NO: 66: mutant PfHPPD: 213K 268A 270S 335P 336H 337S 340V 344Q 345M (protein)
chain: B1 chain with R213K, N270S
modifications: mutant HPPD polypeptide
notes: mutant PfHPPD: 213K 268A 270S 335P 336H 337S 340V 344Q 345M
With B10, the “turnover / residual turnover in the presence of Cmpd. 1 compared with a reference HPPD polypeptide, in words” value in the data set on HPPD polypeptides was “increase significantly the turnover and the residual turnover”. In addition, the “leaf area damage score, 25th percentile” value with T0 soybean plants is reported as 5.0. For the same molecule, in the data set with T0 soybean plants (scale 0-100), the “leaf area damage score, 75th percentile” value is reported as 25.0; the “leaf area damage score, 90th percentile” value is reported as 41.0; the “leaf area damage score, Median” value stood at 10.0.

B11: 43 (protein)
chain: B1 chain with N270E, M345V
modifications: mutant HPPD polypeptide
With B11, in the data set with HPPD polypeptides, the “Residual turnover [%]” value amounted to 58%, the Turnover was 0.190 and the Residual turnover is on record as 0.110.

B12: SEQ ID NO: 2: prior art mutant HPPD polypeptide (WO2014/043435): 335P 336W 339A 340Q (protein)
chain: B1 chain with A268P, N270T, H336W, S337N, K339A, V340Q, Q344S, M345I
modifications: mutant HPPD polypeptide
notes: prior art mutant HPPD polypeptide (WO2014/043435): 335P 336W 339A 340Q
For the molecule B12, the “leaf area damage score, 25th percentile” value in the data set with T0 soybean plants was found to be 15.0. For the same molecule, in the data set on T0 soybean plants (scale 0-100), the “leaf area damage score, 75th percentile” value is recorded as 45.0; the “leaf area damage score, 90th percentile” value turned out to be 87.0; the “leaf area damage score, Median” value was determined as 20.0.

B13: SEQ ID NO: 68: mutant PfHPPD: 268A 270S 315Q 335P 336H 337S 340V 344Q 345M (protein)
chain: B1 chain with N270S, T315Q
modifications: mutant HPPD polypeptide
notes: mutant PfHPPD: 268A 270S 315Q 335P 336H 337S 340V 344Q 345M
For B13, the “turnover / residual turnover in the presence of Cmpd. 1 compared with a reference HPPD polypeptide, in words” value in the data set with HPPD polypeptides was “increase significantly the turnover and the residual turnover”. Besides, the “leaf area damage score, 25th percentile” value in the data set with T0 soybean plants came out at 5.0. In the data set on T0 soybean plants (scale 0-100), the “leaf area damage score, 75th percentile” value was 16.3; the “leaf area damage score, 90th percentile” value is 20.0; the “leaf area damage score, Median” value was determined as 10.0.

B14: 39 (protein)
chain: B1 chain with A268G, N270E, Q344S, M345V
modifications: mutant HPPD polypeptide
With B14, in the data set on HPPD polypeptides, the “Residual turnover [%]” value is on record as 40%, the Turnover worked out at 0.244 and the Residual turnover stood at 0.097.
